# Data reported in US20090099029A1, “Methods and substrates for conducting assays” (Invitrogen Corporation, priority 2005, published 2009).
# Test system: kinases of Table 6 on Myelin Basic Protein (MBP)
# Assay: Kinase assay using MBP substrate, ProQ Diamond stain (Table 6)
# Assay type: biochemical
# Details: kinase printed on MBP-coated slide; 20 uM ATP, 30° C.; ProQ Diamond Microarray Stain; graded Strong/Weak/Negative
# In short: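 Bovine dephosphorylated MBP coated on aldehyde- or epoxy-glass slides, kinases printed on top; reaction buffer pH 7.5 with 4 mM MgCl2, 20 uM ATP, 5% DMSO, ± inhibitor, at 30° C. Phosphorylation detected by ProQ Diamond stain, 30 min in dark.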
row,Molecule,MBP Kinase Activity
1,"NEK3 (protein, left off: a dimerising Fc or GST) MDDYMVLRMIGEGSFGRALLVQHESSNQMFAMKEIRLPKSFSNTQNSRKEAVLLAKMKHPNIVAFKESFEAEGHLYIVMEYCDGGDLMQKIKQQKGKLFPEDMILNWFTQMCLGVNHIHKKRVLHRDIKSKNIFLTQNGKVKLGDFGSARLLSNPMAFACTYVGTPYYVPPEIWENLPYNNKSDIWSLGCILYELCTLKHPFQANSWKNLILKVCQGCISPLPSHYSYELQFLVKQMFKRNPSHRPSATTLLSRGIVARLVQKCLPPEIIMEYGEEVLEEIKNSKHNTPRKKTNPSRIRIALGNEASTVQEEEQDRKGSHTDLESINENLVESALRRVNREEKGNKSVHLRKASSPNLHRRQWEKNVPNTALTALENASILTSSLTAEDDRGGSVIKYSKNTTRKQWLKETPDTLLNILKNADLSLAFQTYTIYRPGSEGFLKGPLSEETEASDSVDGGHDSVILDPERLEPGLDEEDTDFEEEDDNPDWVSELKKRAGWQGLCDR",Negative
2,"PAK1 (protein, left off: a dimerising Fc or GST) MSNNGLDIQDKPPAPPMRNTSTMIGAGSKDAGTLNHGSKPLPPNPEEKKKKDRFYRSILPGDKTNKKKEKERPEISLPSDFEHTIHVGFDAVTGEFTGMPEQWARLLQTSNITKSEQKKNPQAVLDVLEFYNSKKTSNSQKYMSFTDKSAEDYNSSNALNVKAVSETPAVPPVSEDEDDDDDDATPPPVIAPRPEHTKSVYTRSVIEPLPVTPTRDVATSPISPTENNTTPPDALTRNTEKQKKKPKMSDEEILEKLRSIVSVGDPKKKYTRFEKIGQGASGTVYTAMDVATGQEVAIKQMNLQQQPKKELIINEILVMRENKNPNIVNYLDSYLVGDELWVVMEYLAGGSLTDVVTETCMDEGQIAAVCRECLQALEFLHSNQVIHRDIKSDNILLGMDGSVKLTDFGFCAQITPEQSKRSTMVGTPYWMAPEVVTRKAYGPKVDIWSLGIMAIEMIEGEPPYLNENPLRALYLIATNGTPELQNPEKLSAIFRDFLNRCLEMDVEKRGSAKELLQHQFLKIAKPLSSLTPLIAAAKEATKNNH",Negative
3,"PAK3 (protein, left off: small tags and cut ends) MSDGLDNEEKPPAPPLRMNSNNRDSSALNHSSKPLPMAPEEKNKKARLRSIFPGGGDKTNKKKEKERPEISLPSDFEHTIHVGFDAVTGEFTGIPEQWARLLQTSNITKLEQKKNPQAVLDVLKFYDSKETVNNQKYMSFTSGDKSAHGYIAAHPSSTKTASEPPLAPPVSEEEDEEEEEEEDENEPPPVIAPRPEHTKSIYTRSVVESIASPAVPNKEVTPPSAENANSSTLYRNTDRQRKKSKMTDEEILEKLRSIVSVGDPKKKYTRFEKIGQGASGTVYTALDIATGQEVAIKQMNLQQQPKKELIINEILVMRENKNPNIVNYLDSYLVGDELWVVMEYLAGGSLTDVVTETCMDEGQIAAVCRECLQALDFLHSNQVIHRDIKSDNILLGMDGSVKLTDFGFCAQITPEQSKRSTMVGTPYWMAPEVVTRKAYGPKVDIWSLGIMAIEMVEGEPPYLNENPLRALYLIATNGTPELQNPERLSAVFRDFLNRCLEMDVDRRGSAKELLQHPFLKLAKPLSSLTPLIIAAKEAIKNSSR",Weak
4,"PAK6 (protein, left off: small tags and cut ends) MFRKKKKKRPEISAPQNFQHRVHTSFDPKEGKFVGLPPQWQNILDTLRRPKPVVDPSRITRVQLQPMKTVVRGSAMPVDGYISGLLNDIQKLSVISSNTLRGRSPTSRRRAQSLGLLGDEHWATDPDMYLQSPQSERTDPHGLYLSCNGGTPAGHKQMPWPEPQSPRVLPNGLAAKAQSLGPAEFQGASQRCLQLGACLQSSPPGASPPTGTNRHGMKAAKHGSEEARPQSCLVGSATGRPGGEGSPSPKTRESSLKRRLFRSMFLSTAATAPPSSSKPGPPPQSKPNSSFRPPQKDNPPSLVAKAQSLPSDQPVGTFSPLTTSDTSSPQKSLRTAPATGQLPGRSSPAGSPRTWHAQISTSNLYLPQDPTVAKGALAGEDTGVVTHEQFKAALRMVVDQGDPRLLLDSYVKIGEGSTGIVCLAREKHSGRQVAVKMMDLRKQQRRELLFNEVVIMRDYQHFNVVEMYKSYLVGEELWVLMEFLQGGALTDIVSQVRLNEEQIATVCEAVLQALAYLHAQGVIHRDIKSDSILLTLDGRVKLSDFGFCAQISKDVPKRKSLVGTPYWMAPEVISRSLYATEVDIWSLGIMVIEMVDGEPPYFSDSPVQAMKRLRDSPPPKLKNSHKVSPVLRDFLERMLVRDPQERATAQELLDHPFLLQTGLPECLVPLIQLYRKQTSTC",Negative
5,"EPHA8 (protein, left off: a dimerising Fc or GST) KKRHCGYSKAFQDSDEEKMHYQNGQAPPPVFLPLHHPPGKLPEPQFYAEPHTYEEPGRAGRSFTREIEASRIHIEKIIGSGDSGEVCYGRLRVPGQRDVPVAIKALKAGYTERQRRDFLSEASIMGQFDHPNIIRLEGVVTRGRLAMIVTEYMENGSLDTFLRTHDGQFTIMQLVGMLRGVGAGMRYLSDLGYVHRDLAARNVLVDSNLVCKVSDFGLSRVLEDDPDAAYTTTGGKIPIRWTAPEAIAFRTFSSASDVWSFGVVMWEVLAYGERPYWNMTNRDVISSVEEGYRLPAPMGCPHALHQLMLDCWHKDRAQRPRFSQIVSVLDALIRSPESLRATATVSRCPPPAFVRSCFDLRGGSGGGGGLTVGDWLDSIRMGRYRDHFAAGGYSSLGMVLRMNAQDVRALGITLMGHQKKILGSIQTMRAQLTSTQGPRRHL",Weak
6,"PHKG2 (protein, left off: small tags and cut ends) MTLDVGPEDELPDWAAAKEFYQKYDPKDVIGRGVSSVVRRCVHRATGHEFAVKIMEVTAERLSPEQLEEVREATRRETHILRQVAGHPHIITLIDSYESSSFMFLVFDLMRKGELFDYLTEKVALSEKETRSIMRSLLEAVSFLHANNIVHRDLKPENILLDDNMQIRLSDFGFSCHLEPGEKLRELCGTPGYLAPEILKCSMDETHPGYGKEVDLWACGVILFTLLAGSPPFWHRRQILMLRMIMEGQYQFSSPEWDDRSSTVKDLISRLLQVDPEARLTAEQALQHPFFERCEGSQPWNLTPRQRFRVAVWTVLAAGRVALSTHRVRPLTKNALLRDPYALRSVRHLIDNCAFRLYGHWVKKGEQQNRAALFQHRPPGPFPIMGPEEEGDSAAITEDEAVLVLG",Negative
7,"PLK3 (protein, left off: a dimerising Fc or GST) SGRTYLKGRLLGKGGFARCYEATDTETGSAYAVKVIPQSRVAKPHQREKILNEIELHRDLQHRHIVRFSHHFEDADNIYIFLELCSRKSLAHIWKARHTLLEPEVRYYLRQILSGLKYLHQRGILHRDLKLGNFFITENMELKVGDFGLAARLEPPEQRKKTICGTPNYVAPEVLLRQGHGPEADVWSLGCVMYTLLCGSPPFETADLKETYRCIKQVHYTLPASLSLPARQLLAAILRASPRDRPSIDQILRHDFFTKGYTPDRLPISSCVTVPDLTPPNPA",Negative
8,"EPHB1 (protein, left off: a dimerising Fc or GST) SRKRAYSKEAVYSDKLQHYSTGRGSPGMKIYIDPFTYEDPNEAVREFAKEIDVSFVKIEEVIGAGEFGEVYKGRLKLPGKREIYVAIKTLKAGYSEKQRRDFLSEASIMGQFDHPNIIRLEGVVTKSRPVMIITEFMENGALDSFLRQNDGQFTVIQLVGMLRGIAAGMKYLAEMNYVHRDLAARNILVNSNLVCKVSDFGLSRYLQDDTSDPTYTSSLGGKIPVRWTAPEAIAYRKFTSASDVWSYGIVMWEVMSFGERPYWDMSNQDVINAIEQDYRLPPPMDCPAALHQLMLDCWQKDRNSRPRFAEIVNTLDKMIRNPASLKTVATITAVPSQPLLDRSIPDFTAFTTVDDWLSAIKMVQYRDSFLTAGFTSLQLVTQMTSEDLLRIGITLAGHQKKILNSIHSMRVQISQSPTAMA",Strong
9,PRKCE (protein) MVVFNGLLKIKICEAVSLKPTAWSLRHAVGPRPQTFLLDPYIALNVDDSRIGQTATKQKTNSPAWHDEFVTDVCNGRKIELAVFHDAPIGYDDFVANCTIQFEELLQNGSRHFEDWIDLEPEGRVYVIIDLSGSSGEAPKDNEERVFRERMRPRKRQGAVRRRVHQVNGHKFMATYLRQPTYCSHCRDFIWGVIGKQGYQCQVCTCVVHKRCHELIITKCAGLKKQETPDQVGSQRFSVNMPHKFGIHNYKVPTFCDHCGSLLWGLLRQGLQCKVCKMNVHRRCETNVAPNCGVDARGIAKVLADLGVTPDKITNSGQRRKKLIAGAESPQPASGSSPSEEDRSKSAPTSPCDQEIKELENNIRKALSFDNRGEEHRAASSPDGQLMSPGENGEVRQGQAKRLGLDEFNFIKVLGKGSFGKVMLAELKGKDEVYAVKVLKKDVILQDDDVDCTMTEKRILALARKHPYLTQLYCCFQTKDRLFFVMEYVNGGDLMFQIQRSRKFDEPRSRFYAAEVTSALMFLHQHGVIYRDLKLDNILLDAEGHCKLADFGMCKEGILNGVTTTTFCGTPDYIAPEILQELEYGPSVDWWALGVLMYEMMAGQPPFEADNEDDLFESILHDDVLYPVWLSKEAVSILKAFMTKNPHKRLGCVASQNGEDAIKQHPFFKEIDWVLLEQKKIKPPFKPRIKTKRDVNNFDQDFTREEPVLTLVDEAIVKQINQEEFKGFSYFGEDLMP,Strong
10,"EPHB2 (protein, left off: a dimerising Fc or GST) CNRRGFERADSEYTDKLQHYTSGHMTPGMKIYIDPFTYEDPNEAVREFAKEIDISCVKIEQVIGAGEFGEVCSGHLKLPGKREIFVAIKTLKSGYTEKQRRDFLSEASIMGQFDHPNVIHLEGVVTKSTPVMIITEFMENGSLDSFLRQNDGQFTVIQLVGMLRGIAAGMKYLADMNYVHRDLAARNILVNSNLVCKVSDFGLSRFLEDDTSDPTYTSALGGKIPIRWTAPEAIQYRKFTSASDVWSYGIVMWEVMSYGERPYWDMTNQDVINAIEQDYRLPPPMDCPSALHQLMLDCWQKDRNHRPKFGQIVNTLDKMIRNPNSLKAMAPLSSGINLPLLDRTIPDYTSFNTVDEWLEAIKMGQYKESFANAGFTSFDVVSQMMMEDILRVGVTLAGHQKKILNSIQVMRAQMNQIQSVEV",Strong
